Test results taken from patent WO2025037032A1.

Biological target: coagulation Factor VIII (human) (UniProt P00451)
Assay: VWF:FVIIIB enzyme immunoassay; VWF of human plasma captured with rabbit anti-human VWF F(ab')2, bound FVIII detected; plasma pre-incubated 17 h at 37°C with 200 or 600 nM one-arm anti-VWF CK domain antibodies

Chain of UniProt P00451 (P00451 20-2351): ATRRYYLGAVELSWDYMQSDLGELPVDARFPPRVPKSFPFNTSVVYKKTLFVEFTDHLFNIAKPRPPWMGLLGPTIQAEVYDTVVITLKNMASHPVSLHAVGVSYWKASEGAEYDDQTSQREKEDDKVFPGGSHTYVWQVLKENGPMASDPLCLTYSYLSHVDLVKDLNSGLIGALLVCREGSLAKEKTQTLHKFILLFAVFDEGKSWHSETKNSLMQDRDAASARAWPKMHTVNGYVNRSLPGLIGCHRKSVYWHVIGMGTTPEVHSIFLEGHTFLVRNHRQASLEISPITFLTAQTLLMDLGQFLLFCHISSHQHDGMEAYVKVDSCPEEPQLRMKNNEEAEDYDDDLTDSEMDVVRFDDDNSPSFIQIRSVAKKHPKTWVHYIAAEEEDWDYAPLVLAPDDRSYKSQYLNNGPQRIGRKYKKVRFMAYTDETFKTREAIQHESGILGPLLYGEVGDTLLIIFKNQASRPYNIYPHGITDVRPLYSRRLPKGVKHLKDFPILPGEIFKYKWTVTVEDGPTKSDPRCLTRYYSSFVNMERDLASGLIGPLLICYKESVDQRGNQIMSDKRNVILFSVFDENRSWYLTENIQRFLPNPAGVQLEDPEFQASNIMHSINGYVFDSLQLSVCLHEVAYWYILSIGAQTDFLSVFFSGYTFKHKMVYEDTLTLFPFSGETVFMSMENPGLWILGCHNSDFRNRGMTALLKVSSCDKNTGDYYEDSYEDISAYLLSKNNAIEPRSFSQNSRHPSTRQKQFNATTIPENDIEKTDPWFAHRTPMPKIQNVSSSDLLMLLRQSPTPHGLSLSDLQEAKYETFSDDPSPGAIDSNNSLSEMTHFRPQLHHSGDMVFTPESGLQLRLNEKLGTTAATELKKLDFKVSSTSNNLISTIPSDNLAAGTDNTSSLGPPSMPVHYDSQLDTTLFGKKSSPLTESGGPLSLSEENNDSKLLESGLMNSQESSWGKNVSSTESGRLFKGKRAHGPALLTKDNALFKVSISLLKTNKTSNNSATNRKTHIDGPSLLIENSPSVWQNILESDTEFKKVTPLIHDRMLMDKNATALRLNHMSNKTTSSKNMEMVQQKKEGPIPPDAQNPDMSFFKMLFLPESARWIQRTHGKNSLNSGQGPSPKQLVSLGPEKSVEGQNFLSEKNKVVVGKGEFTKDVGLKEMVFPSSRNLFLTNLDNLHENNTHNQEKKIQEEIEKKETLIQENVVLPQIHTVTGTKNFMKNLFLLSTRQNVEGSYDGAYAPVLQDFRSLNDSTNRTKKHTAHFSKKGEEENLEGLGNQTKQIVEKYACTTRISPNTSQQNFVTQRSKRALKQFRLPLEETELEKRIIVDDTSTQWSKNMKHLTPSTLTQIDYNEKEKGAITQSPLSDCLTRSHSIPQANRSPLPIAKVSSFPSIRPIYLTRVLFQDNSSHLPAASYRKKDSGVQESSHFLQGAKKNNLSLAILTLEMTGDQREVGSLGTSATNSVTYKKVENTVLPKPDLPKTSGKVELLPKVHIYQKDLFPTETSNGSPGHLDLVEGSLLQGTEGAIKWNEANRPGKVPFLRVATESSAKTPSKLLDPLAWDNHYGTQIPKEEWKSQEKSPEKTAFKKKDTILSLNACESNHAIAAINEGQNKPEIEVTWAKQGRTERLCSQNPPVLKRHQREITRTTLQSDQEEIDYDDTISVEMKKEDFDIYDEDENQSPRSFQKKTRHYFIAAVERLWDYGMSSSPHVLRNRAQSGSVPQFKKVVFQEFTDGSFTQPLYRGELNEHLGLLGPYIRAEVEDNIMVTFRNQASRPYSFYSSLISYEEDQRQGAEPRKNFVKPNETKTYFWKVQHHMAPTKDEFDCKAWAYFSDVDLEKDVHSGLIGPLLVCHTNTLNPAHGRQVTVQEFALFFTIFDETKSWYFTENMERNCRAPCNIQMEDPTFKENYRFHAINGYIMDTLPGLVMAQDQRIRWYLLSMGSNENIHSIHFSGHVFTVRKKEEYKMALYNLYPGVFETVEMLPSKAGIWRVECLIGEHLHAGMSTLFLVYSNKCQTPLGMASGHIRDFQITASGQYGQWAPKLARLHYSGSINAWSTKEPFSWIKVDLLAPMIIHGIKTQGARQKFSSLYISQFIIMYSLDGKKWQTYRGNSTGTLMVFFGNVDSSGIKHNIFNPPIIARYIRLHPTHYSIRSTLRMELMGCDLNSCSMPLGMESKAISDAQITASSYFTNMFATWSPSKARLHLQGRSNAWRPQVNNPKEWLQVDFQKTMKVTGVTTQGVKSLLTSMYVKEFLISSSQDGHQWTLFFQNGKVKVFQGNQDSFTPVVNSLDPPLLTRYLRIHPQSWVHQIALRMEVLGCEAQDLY

## human plasma-derived VWF (from UniProt P04275 764-2813)
  mean level of VWF:FVIII relative to untreated donor-matched plasma: > 80%
